From patent publication US20060057696A1, “Sugar chain synthases” (priority 2002, published 2006)

Tests used:
Assay type in all cases: biochemical
[1] = molecular target: T1, PA-hST8Sia VI (human ST8Sia VI) (Homo sapiens, UniProt P61647, L267F); experiment: Sialyltransferase activity of PA-hST8Sia VI toward acceptor substrates; details: incorporation with Fetuin taken as 100, substrate 0.5 mg/ml glycolipids, 1 mg/ml glycoproteins, monosaccharides and oligosaccharides
T1 construct: amino acids 68-398 in the case of human ST8Sia VI; signal peptide of mouse immunoglobulin IgM (N); made in house; host or cells: COS-7 cells, transient expression of pcDSA-hST8Sia VI; protein recovered from medium on IgG-Sepharose
T1 sequence (P61647 68-398 L267F): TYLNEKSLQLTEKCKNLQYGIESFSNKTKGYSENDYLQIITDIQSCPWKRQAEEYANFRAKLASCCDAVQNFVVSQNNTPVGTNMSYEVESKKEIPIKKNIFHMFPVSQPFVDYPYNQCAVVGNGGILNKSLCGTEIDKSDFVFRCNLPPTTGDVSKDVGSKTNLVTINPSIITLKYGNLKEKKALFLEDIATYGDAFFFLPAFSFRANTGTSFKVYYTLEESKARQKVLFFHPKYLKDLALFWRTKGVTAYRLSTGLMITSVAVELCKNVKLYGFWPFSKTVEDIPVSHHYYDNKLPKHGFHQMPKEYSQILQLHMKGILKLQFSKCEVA
Description: (§1) Using each expression vector and lipofectamine (Invitrogen), transient expression was carried out in COS-7 cells (Kojima, N. et al. (1995) FEBS Lett. 360, 1-4). The proteins of the present invention secreted from the cells into which each expression vector had been introduced were named as PA-mST8Sia VI (mouse) and PA-hST8Sia VI (human). PA-mST8Sia VI and PA-hST8Sia VI were adsorbed to IgG-Sepharose (Amersham Pharmacia Biotech), and were then recovered from medium. Sialyltransferase activity was measured as follows according to the method of Lee et al. (Lee, Y.-C. et al. (1999) J. Biol. Chem. 274, 11958-11967). A reaction solution (10 μl) containing 50 mM MES buffer (pH 6.0), 1 mM MgCl2, 1 mM CaCl2, 0.5% Triton CF-54, 100 μM CMP-[^14C]-NeuAc, a glycoconjugate (which was added at 0.5 mg/ml in the case of glycolipids, and at 1 mg/ml in the case of glycoproteins or oligosaccharides), and a PA-mST8Sia VI or PA-hST8Sia VI suspension, was incubated at 37° C. for 3 to 20 hours. Thereafter, in the case of glycolipids, the reaction product was purified with a C-18 column (Sep-Pak Vac 100 mg; Waters) and the purified product was used as a sample, and in the case of oligosaccharides or glycoproteins, the reaction product was directly used as a sample. Thus, the obtained samples were subjected to analysis. In the case of oligosaccharides or glycolipids, the sample was spotted on a silica gel 60 HPTLC plate (Merck), and was then developed with a developing solvent consisting of ethanol:pyridine:n-butanol:water:acetic acid=100:10:10:30:3 (for oligosaccharides), a developing solvent consisting of 1-propanol:ammonia water:water=6:1:2.5 (for oligosaccharides), or a developing solvent consisting of chloroform:methanol: 0.02% CaCl2=55:45:10 (for glycolipids). In the case of glycoproteins, analysis was carried out by SDS-polyacrylamide gel electrophoresis. The obtained radioactivities were visualized with a BAS2000 radio image analyzer (Fuji Film) and then quantified.

[2] = molecular target: T2, PA-mST8Sia VI (mouse ST8Sia VI) (Mus musculus, UniProt Q8K4T1); experiment: Sialyltransferase activity of PA-mST8Sia VI toward acceptor substrates; details: for Relative rate (%) Mouse ST8SiaVI: incorporation with Fetuin taken as 100, substrate 0.5 mg/ml glycolipids, 1 mg/ml glycoproteins, monosaccharides and oligosaccharides
T2 construct: amino acids 26-398 in the case of mouse ST8Sia VI; signal peptide of mouse immunoglobulin IgM (N); made in house; host or cells: COS-7 cells, transient expression of pcDSA-mST8Sia VI; protein recovered from medium on IgG-Sepharose
T2 sequence (Q8K4T1 26-398): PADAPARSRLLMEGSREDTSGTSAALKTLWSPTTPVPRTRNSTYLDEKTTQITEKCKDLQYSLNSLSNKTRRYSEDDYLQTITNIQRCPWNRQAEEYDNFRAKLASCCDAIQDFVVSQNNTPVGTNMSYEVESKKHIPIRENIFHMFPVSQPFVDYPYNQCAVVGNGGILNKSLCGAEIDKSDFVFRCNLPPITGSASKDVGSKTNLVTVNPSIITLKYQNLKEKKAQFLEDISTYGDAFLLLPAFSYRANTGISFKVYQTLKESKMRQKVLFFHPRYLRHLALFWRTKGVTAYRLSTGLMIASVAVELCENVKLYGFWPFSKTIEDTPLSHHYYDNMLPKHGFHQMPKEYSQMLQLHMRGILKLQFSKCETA
Description: as §1

[3] = molecular target: T3, mouse ST8Sia III (Mus musculus, UniProt Q64689); experiment: N-glycanase treatment of Fetuin sialylated with [14C]-NeuAc by mouse ST8Sia III
T3 sequence (Q64689 1-380): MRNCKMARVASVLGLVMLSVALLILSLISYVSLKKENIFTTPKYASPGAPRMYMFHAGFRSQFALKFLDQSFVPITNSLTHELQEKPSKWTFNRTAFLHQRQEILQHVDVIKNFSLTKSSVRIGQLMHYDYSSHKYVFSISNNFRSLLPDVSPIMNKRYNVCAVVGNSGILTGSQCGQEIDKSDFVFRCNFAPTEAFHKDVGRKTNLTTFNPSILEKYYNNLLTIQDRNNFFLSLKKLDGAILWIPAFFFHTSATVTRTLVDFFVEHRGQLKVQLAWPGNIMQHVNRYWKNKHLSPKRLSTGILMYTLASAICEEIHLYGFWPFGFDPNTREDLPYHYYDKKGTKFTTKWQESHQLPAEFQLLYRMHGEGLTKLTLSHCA
Description: (§2) In FIG. 4, Fetuin was [^14C]-NeuAc-incorporated by ST8Sia III or ST8Sia VI and then treated with N-glycanase. The [^14C]-NeuAc-incorporated Fetuin was treated with N-glycanase, and the treated product was analyzed by SDS-PAGE. Thereafter, it was visualized with a BAS2000 radio image analyzer.
(§3) It was found by an N-glycanase treatment that when Fetuin was used as a substrate, the majority of sialic acid, which was newly introduced by PA-mST8Sia VI, was incorporated into O-glycans (FIG. 4). That is, when Fetuin was sialylated by PA-mST8Sia VI with [^14C]-NeuAc, and the sialylated product was then treated with N-glycanase, which releases N-glycans from a peptide portion. The majority (82.7%) of radioactivity was still kept in the Fetuin after this treatment. […] On the other hand, the same experiment was carried out using mouse ST8Sia III, which used N-glycans of Fetuin as substrates.

[4] = molecular target: T4, PA-mST8Sia VI (Mus musculus, UniProt Q8K4T1); experiment: N-glycanase treatment of Fetuin sialylated with [14C]-NeuAc by PA-mST8Sia VI; details: sialylated by PA-mST8Sia VI with [14C]-NeuAc; shows incorporation into O-glycans
T4 construct: amino acids 26-398 in the case of mouse ST8Sia VI; signal peptide of mouse immunoglobulin IgM (N); made in house; host or cells: COS-7 cells, transient expression of pcDSA-mST8Sia VI; protein recovered from medium on IgG-Sepharose
T4 sequence (Q8K4T1 26-398): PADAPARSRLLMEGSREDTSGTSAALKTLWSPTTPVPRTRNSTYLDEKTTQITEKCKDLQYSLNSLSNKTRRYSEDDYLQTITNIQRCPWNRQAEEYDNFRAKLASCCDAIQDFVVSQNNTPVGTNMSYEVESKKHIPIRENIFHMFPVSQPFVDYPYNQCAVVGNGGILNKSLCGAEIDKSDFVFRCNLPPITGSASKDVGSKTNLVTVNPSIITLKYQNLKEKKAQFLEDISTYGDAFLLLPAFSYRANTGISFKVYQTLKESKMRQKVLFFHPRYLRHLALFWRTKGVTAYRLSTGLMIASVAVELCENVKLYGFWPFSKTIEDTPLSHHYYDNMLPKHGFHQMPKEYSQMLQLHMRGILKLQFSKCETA
Description: as §2, §3

With “Asialo- α1-Acid glycoprotein: desialylated α1-acid glycoprotein prepared at 80° C. for 1 hour in 0.02 N HCl” the “Relative rate (%) Human ST8Sia VI” value [1] was 0% and the “Relative rate (%) Mouse ST8SiaVI” value [2] was 0%.

In the case of “Asialofetuin: asialo glycoprotein acceptor substrate purchased from Sigma”, the “Relative rate (%) Human ST8Sia VI” value [1] is reported as 0% and the “Relative rate (%) Mouse ST8SiaVI” value [2] is reported as 0%.

In the case of “Fetuin: glycoprotein acceptor substrate containing both O-glycans and N-glycans, purchased from Sigma”, the “radioactivity in Fetuin after N-glycanase treatment (in words)” value [3] is reported as “completely disappeared”, the “Relative rate (%) Human ST8Sia VI” value [1] is reported as 100% and the “radioactivity still kept in the Fetuin after N-glycanase treatment” value [4] is reported as 82.7%. For the same molecule, the “activity of PA-mST8Sia VI on the substrate (in words)” value (shortened to “activity of PA-mST8Sia VI”) [2] was “showed activity” and the “Relative rate (%) Mouse ST8SiaVI” value [2] was 100%.

“Galβ1,3GalNAcβ1,4(NeuAcα2,3)Galβ1,4Glcβ1-Cer [GM1a]” was tested, and the “Relative rate (%) Mouse ST8SiaVI” value [2] was 0%.

In the case of Galβ1,4Glcβ1-Cer [Lactosylceramide], the “Relative rate (%) Mouse ST8SiaVI” value [2] is reported as 0%.

For NeuAcα2,3Galβ1,4Glcβ1-Cer [GM3], the “Relative rate (%) Human ST8Sia VI” value [1] was 1.6%, the Km [2] was 500 µM and the Vmax value [2] was 0.67 pmol/h/ml enzyme solution. The “activity of PA-mST8Sia VI” value [2] was “showed activity” and the “Relative rate (%) Mouse ST8SiaVI” value [2] was 13.0%.

For “α1-Acid glycoprotein: glycoprotein acceptor substrate purchased from Sigma”, the “Relative rate (%) Human ST8Sia VI” value [1] was 0% and the “Relative rate (%) Mouse ST8SiaVI” value [2] was 0%.

B1: Ovomucoid: glycoprotein acceptor substrate which contains only N-glycans (protein, UniProt P01005 25-210, looked up)
Ovomucoid: AEVDCSRFPNATDKEGKDVLVCNKDLRPICGTDGVTYTNDCLLCAYSIEFGTNISKEHDGECKETVPMNCSSYANTTSEDGKVMVLCNRAFNPVCGTDGVTYDNECLLCAHKVEQGASVDKRHDGGCRKELAAVSVDCSEYPKPDCTAEDRPLCGSDNKTYGNKCNFCNAVVESNGTLTLSHFGKC
In the case of B1, the “Relative rate (%) Human ST8Sia VI” value [1] is reported as 12.3%, the “activity of PA-mST8Sia VI” value [2] is reported as “showed activity” and the “Relative rate (%) Mouse ST8SiaVI” value [2] is reported as 6.2%.

B2: Asialoovomucoid: desialylated ovomucoid prepared at 80° C. for 1 hour in 0.02 N HCl (protein, UniProt P01005 25-210, looked up)
Ovomucoid: AEVDCSRFPNATDKEGKDVLVCNKDLRPICGTDGVTYTNDCLLCAYSIEFGTNISKEHDGECKETVPMNCSSYANTTSEDGKVMVLCNRAFNPVCGTDGVTYDNECLLCAHKVEQGASVDKRHDGGCRKELAAVSVDCSEYPKPDCTAEDRPLCGSDNKTYGNKCNFCNAVVESNGTLTLSHFGKC
modifications: desialylated
notes: desialylated ovomucoid prepared at 80° C. for 1 hour in 0.02 N HCl
In the case of B2, the “Relative rate (%) Human ST8Sia VI” value [1] is reported as 0% and the “Relative rate (%) Mouse ST8SiaVI” value [2] is reported as 0%.
